Assay results published in the RNAGym collection of RNA variant scans (doi:10.7554/elife.80360).

B1: CPEB3 Ribozyme (parent)
chain: GGGGGCCACAGCAGAAGCGUUCACGUCGCGGCCCCUGUCAGAUUCUGGUGAAUCUGCGAAUUCUGCUGU

Variants of: B1
Assay: self-cleavage, relative activity (ratio to wild type); higher = more cleavage; co-transcriptional

Compared with C7G A23U, C7G A40C is lower in self-cleavage: 0.645 for the first, 0.17 for the second.

Going from C7G A42U to C7G A52G, the self-cleavage rises from 0.303 to 0.38.

Going from C7G A59C to C7G A59U, the self-cleavage rises from 0.148 to 0.167.

Going from C7G A60C to C7G C9U, the self-cleavage rises from 0.196 to 0.844.

Going from C7G C12A to C7G C12G, the self-cleavage rises from 0.0557 to 0.223.

Going from C7G C12U to C7G C18A, the self-cleavage falls from 0.383 to 0.0277.

Going from C7G C22A to C7G C22G, the self-cleavage falls from 0.104 to 0.0908.

Going from C7G C24A to C7G C27A, the self-cleavage rises from 0.0945 to 0.11.

First: C7G C29A
Second: C7G C29G
The self-cleavage of the first is lower: 0.102 for the first, 0.125 for the second.

First: C7G C29U
Second: C7G C32A
The self-cleavage of the first is higher: 0.0696 for the first, 0.0649 for the second.

First: C7G C33U
Second: C7G C35A
The self-cleavage of the first is higher: 0.253 for the first, 0.13 for the second.

Compared with C7G C57A, C7G G11C is higher in self-cleavage: 0.146 for the first, 0.157 for the second.

First: C7G G11U
Second: C7G G14A
The self-cleavage of the first is higher: 0.175 for the first, 0.0844 for the second.

First: C7G G17C
Second: C7G G17U
The self-cleavage of the first is higher: 0.112 for the first, 0.0489 for the second.

Going from C7G G19C to C7G G25A, the self-cleavage rises from 0.106 to 0.107.

Compared with C7G G28A, C7G G28C is higher in self-cleavage: 0.0296 for the first, 0.106 for the second.

First: C7G G30A
Second: C7G G30C
The self-cleavage of the first is lower: 0.791 for the first, 1.01 for the second.

Going from C7G G37A to C7G G37C, the self-cleavage falls from 0.153 to 0.118.

First: C7G G37U
Second: C7G G41A
The self-cleavage of the first is higher: 0.179 for the first, 0.131 for the second.

First: C7G G41C
Second: C7G G47C
The self-cleavage of the first is lower: 0.121 for the first, 0.604 for the second.

Going from C7G G47U to C7G G48C, the self-cleavage falls from 0.636 to 0.502.

First: C7G G56U
Second: C7G G58A
The self-cleavage of the first is lower: 0.177 for the first, 0.281 for the second.

Going from C7G G68C to C7G U21A, the self-cleavage falls from 0.815 to 0.395.

Going from C7G U21G to C7G U26A, the self-cleavage falls from 0.119 to 0.103.

First: C7G U26G
Second: C7G U36A
The self-cleavage of the first is higher: 0.233 for the first, 0.0233 for the second.

Compared with C7G U38A, C7G U38C is lower in self-cleavage: 0.264 for the first, 0.174 for the second.

Compared with C7G U38G, C7G U43C is higher in self-cleavage: 0.068 for the first, 0.231 for the second.

First: C7G U46G
Second: C7G U49A
The self-cleavage of the first is higher: 0.455 for the first, 0.444 for the second.

First: C7G U49C
Second: C7G U62A
The self-cleavage of the first is higher: 0.491 for the first, 0.18 for the second.

Going from C7G U67G to C7G U69A, the self-cleavage falls from 0.75 to 0.728.

First: C7U A13U
Second: C7U A16G
The self-cleavage of the first is lower: 0.693 for the first, 0.908 for the second.

Going from C7U A42G to C7U A52G, the self-cleavage rises from 0.908 to 0.957.

First: C7U A52U
Second: C7U A60C
The self-cleavage of the first is higher: 0.91 for the first, 0.231 for the second.

Going from C7U C12G to C7U C12U, the self-cleavage rises from 0.822 to 0.94.

Compared with C7U C18G, C7U C22U is higher in self-cleavage: 0.104 for the first, 0.155 for the second.

Compared with C7U C24G, C7U C24U is higher in self-cleavage: 0.225 for the first, 0.676 for the second.

First: C7U C29A
Second: C7U C29G
The self-cleavage of the first is higher: 0.413 for the first, 0.314 for the second.

Compared with C7U C29U, C7U C32U is higher in self-cleavage: 0.505 for the first, 0.984 for the second.

Compared with C7U C34G, C7U C34U is higher in self-cleavage: 0.287 for the first, 0.969 for the second.

Going from C7U C35A to C7U C35G, the self-cleavage rises from 0.194 to 0.28.

Going from C7U C54G to C7U C57G, the self-cleavage falls from 0.766 to 0.155.

First: C7U C63G
Second: C7U C66A
The self-cleavage of the first is lower: 0.603 for the first, 0.8 for the second.

Compared with C7U C66U, C7U G11A is lower in self-cleavage: 0.982 for the first, 0.816 for the second.

Going from C7U G11C to C7U G14C, the self-cleavage falls from 0.663 to 0.417.

Going from C7U G25U to C7U G28A, the self-cleavage rises from 0.089 to 0.123.

Going from C7U G30A to C7U G30C, the self-cleavage falls from 0.957 to 0.608.

Compared with C7U G30U, C7U G31A is lower in self-cleavage: 0.814 for the first, 0.496 for the second.

Going from C7U G37A to C7U G37C, the self-cleavage falls from 0.187 to 0.152.

Compared with C7U G41C, C7U G47U is higher in self-cleavage: 0.647 for the first, 1.02 for the second.

First: C7U G48C
Second: C7U G50A
The self-cleavage of the first is lower: 0.949 for the first, 0.996 for the second.

Going from C7U G56A to C7U G58U, the self-cleavage rises from 0.916 to 0.983.

Going from C7U G68U to C7U U20G, the self-cleavage falls from 0.965 to 0.17.

Compared with C7U U21C, C7U U26A is lower in self-cleavage: 0.688 for the first, 0.597 for the second.

Compared with C7U U26G, C7U U43G is lower in self-cleavage: 0.762 for the first, 0.757 for the second.

Compared with C7U U44A, C7U U44G is higher in self-cleavage: 0.881 for the first, 0.914 for the second.

First: C7U U46A
Second: C7U U46G
The self-cleavage of the first is higher: 0.985 for the first, 0.934 for the second.

Going from C7U U49A to C7U U53C, the self-cleavage falls from 0.957 to 0.784.

First: C7U U55C
Second: C7U U55G
The self-cleavage of the first is higher: 0.744 for the first, 0.706 for the second.

Going from C7U U61G to C7U U64G, the self-cleavage rises from 0.714 to 0.899.

First: A8C A13G
Second: A8C A13U
The self-cleavage of the first is higher: 0.987 for the first, 0.849 for the second.

First: A8C A15G
Second: A8C A40C
The self-cleavage of the first is higher: 0.995 for the first, 0.639 for the second.

Going from A8C A42C to A8C A51C, the self-cleavage falls from 0.992 to 0.981.

A8C A51G and A8C A52U are the same in self-cleavage: 0.962 for the first, 0.962 for the second.

Going from A8C A59C to A8C C12A, the self-cleavage falls from 0.725 to 0.637.

Going from A8C C18A to A8C C24A, the self-cleavage rises from 0.152 to 0.707.

Compared with A8C C27U, A8C C29G is lower in self-cleavage: 0.342 for the first, 0.0981 for the second.

Going from A8C C29U to A8C C32A, the self-cleavage falls from 0.81 to 0.784.

Going from A8C C33U to A8C C35A, the self-cleavage falls from 1 to 0.374.

Compared with A8C C45G, A8C C54A is lower in self-cleavage: 0.984 for the first, 0.915 for the second.

Going from A8C C63G to A8C C66A, the self-cleavage rises from 0.734 to 0.818.

Going from A8C G14U to A8C G19C, the self-cleavage falls from 0.723 to 0.107.

First: A8C G19U
Second: A8C G25U
The self-cleavage of the first is higher: 0.462 for the first, 0.177 for the second.

Compared with A8C G28A, A8C G31A is higher in self-cleavage: 0.215 for the first, 0.888 for the second.

Going from A8C G37C to A8C G41C, the self-cleavage rises from 0.239 to 0.757.

Compared with A8C G47C, A8C G47U is higher in self-cleavage: 1.03 for the first, 1.04 for the second.

Compared with A8C G48A, A8C G50A is higher in self-cleavage: 1 for the first, 1.02 for the second.

Compared with A8C G50C, A8C G50U is higher in self-cleavage: 0.98 for the first, 1.03 for the second.

Going from A8C G56U to A8C G58C, the self-cleavage rises from 0.908 to 0.963.

Going from A8C G58U to A8C G65C, the self-cleavage falls from 1.03 to 0.635.

Compared with A8C G68A, A8C U20G is lower in self-cleavage: 1.02 for the first, 0.141 for the second.

Going from A8C U21A to A8C U21G, the self-cleavage falls from 0.972 to 0.501.

Going from A8C U26A to A8C U26C, the self-cleavage rises from 0.82 to 0.992.

Going from A8C U26G to A8C U38A, the self-cleavage rises from 0.835 to 0.897.

In the case of A8C U38G, the self-cleavage is reported as 0.245.
